Laboratory results: the supplement of paper PMC10724198
± gives the standard deviation of the averaged measurements.

Legend:
[1] = test system: Saccharomyces cerevisiae; test: protein stability index of tFT-peptide fusion (C-terminal peptide) (PSI (0-1 scale)); higher = more stable (slower turnover); details: genetic background: wild type; temperature: 30 C
[2] = test system: Saccharomyces cerevisiae; test: as above
Procedure: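 MPS profiling in S. cerevisiae of the tFT-X12 degron library: putative degron peptides plus stable controls, 12 aa, fused to the C-terminus of a sfGFP-mCherry timer. Cells are FACS-sorted into 8 mCherry/sfGFP bins and deep-sequenced. PSI runs from 0 (unstable) to 1 (stable). Backgrounds are wild type, das1Δ and doa10Δ at 30 °C, and wild type, das1Δ, cdc34-1 and cdc53-1 at 37 °C; 2-3 technical replicates each.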

[3] = genetic background: cdc34-1, temperature: 37 C
[4] = genetic background: cdc53-1, temperature: 37 C
[5] = genetic background: das1 deletion, temperature: 30 C
[6] = genetic background: das1 deletion, temperature: 37 C
[7] = genetic background: doa10 deletion, temperature: 30 C
[8] = genetic background: wild type, temperature: 30 C
[9] = genetic background: wild type, temperature: 37 C
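Further: PSI is a weighted mean of sequencing reads over stability bins, variants kept only with over 10 reads, mCherry proximal and sfGFP distal, peptide attached via GGGS linker.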

Row | Sequence | protein stability index [1] | protein stability index [2, 3] | protein stability index [2, 4] | protein stability index [2, 5] | protein stability index [2, 6] | protein stability index [2, 7] | protein stability index [2, 8] | protein stability index [2, 9]
1 | VLVVWLGICFGY | 0.259 ± 0.011 | 0.166 ± 0.014 | 0.201 ± 0.046 | 0.191 ± 0.033 | 0.37 ± 0.0092 | 0.187 ± 0.0077 | 0.201 ± 0.016 | 0.299 ± 0.0044
2 | PWAHIRTVQTYV | 0.437 ± 0.0069 | 0.673 ± 0.0069 | 0.716 ± 0.013 | 0.595 ± 0.011 | 0.7626 ± 0.0066 | 0.286 ± 0.0081 | 0.314 ± 0.033 | 0.461 ± 0.027
3 | CAGLLSVSFWLF | 0.499 ± 0.0012 | 0.516 ± 0.024 | 0.589 ± 0.037 | 0.44 ± 0.033 | 0.597 ± 0.022 | 0.351 ± 0.0039 | 0.381 ± 0.017 | 0.552 ± 0.0056
4 | LLLVSLAVPLSL | 0.509 ± 0.022 | 0.524 ± 0.013 | 0.569 ± 0.014 | 0.465 ± 0.017 | 0.559 ± 0.021 | 0.451 ± 0.03 | 0.459 ± 0.02 | 0.539 ± 0.0084
5 | ACVWVVALVWVF | 0.213 ± 0.016 | 0.121 ± 0.005 | 0.249 ± 0.041 | 0.174 ± 0.035 | 0.303 ± 0.015 | 0.132 ± 0.0086 | 0.153 ± 0.01 | 0.243 ± 0.009
6 | CWILLFGCVWVG | 0.263 ± 0.0084 | 0.1785 ± 0.0003 | 0.335 ± 0.049 | 0.233 ± 0.023 | 0.397 ± 0.033 | 0.221 ± 0.015 | 0.234 ± 0.0095 | 0.336 ± 0.037
7 | PFFFIFVLPFVF | 0.402 ± 0.011 | 0.456 ± 0.045 | 0.51212 ± 0.00041 | 0.366 ± 0.024 | 0.524 ± 0.0093 | 0.318 ± 0.027 | 0.309 ± 0.041 | 0.465 ± 0.0074
8 | RRIKIRKQEYIS | 0.313 ± 0.029 | 0.572 ± 0.13 | 0.696 ± 0.04 | 0.684 ± 0.029 | 0.719 ± 0.018 | 0.185 ± 0.0051 | 0.217 ± 0.023 | 0.459 ± 0.021
9 | GNSAGSVGGGRF | 0.705 ± 0.038 | 0.695 ± 0.022 | 0.738 ± 0.02 | 0.627 ± 0.012 | 0.7387 ± 0.0012 | 0.638 ± 0.024 | 0.652 ± 0.014 | 0.7254 ± 0.0028
10 | TVERKMYWQRWG | 0.391 ± 0.045 | 0.666 ± 0.029 | 0.745 ± 0.025 | 0.641 ± 0.011 | 0.754 ± 0.01 | 0.1794 ± 0.00073 | 0.187 ± 0.0033 | 0.4975 ± 0.0044
11 | DLRFAWLLSCFS | 0.432 ± 0.015 | 0.44 ± 0.017 | 0.47 ± 0.011 | 0.331 ± 0.034 | 0.501 ± 0.014 | 0.293 ± 0.006 | 0.334 ± 0.022 | 0.476 ± 0.0054
12 | RNCSFRRIQLAM | 0.362 ± 0.045 | 0.651 ± 0.063 | 0.699 ± 0.032 | 0.594 ± 0.0073 | 0.715 ± 0.0059 | 0.162 ± 0.0031 | 0.19 ± 0.022 | 0.298 ± 0.0095
13 | FSLRLFLVLALS | 0.193 ± 0.0034 | 0.3032 ± 0.0029 | 0.377 ± 0.01 | 0.261 ± 0.021 | 0.395 ± 0.012 | 0.123 ± 0.013 | 0.154 ± 0.028 | 0.227 ± 0.0026
14 | GAICCFCCYLVF | 0.514 ± 0.043 | 0.554 ± 0.0089 | 0.625 ± 0.026 | 0.505 ± 0.028 | 0.626 ± 0.035 | 0.463 ± 0.025 | 0.47 ± 0.014 | 0.597 ± 0.031
15 | LCSCAVVICCSL | 0.377 ± 0.04 | 0.445 ± 0.0054 | 0.4359 ± 0.0021 | 0.299 ± 0.031 | 0.4631 ± 0.0044 | 0.274 ± 0.0047 | 0.309 ± 0.0072 | 0.441 ± 0.019
16 | GSLHWVMVFAVP | 0.489 ± 0.042 | 0.604 ± 0.037 | 0.6404 ± 0.0044 | 0.491 ± 0.025 | 0.6582 ± 0.0047 | 0.493 ± 0.033 | 0.487 ± 0.016 | 0.607 ± 0.03
17 | KIHILVVQIATR | 0.0736 ± 0.038 | 0.0402 ± 0.0097 | 0.134 ± 0.0054 | 0.0541 ± 0.0098 | 0.1391 ± 0.00019 | 0.0346 ± 0.0032 | 0.0319 ± 0.013 | 0.114 ± 0.0046
18 | ERRWVLVAWRFK | 0.494 ± 0.02 | 0.555 ± 0.026 | 0.616 ± 0.013 | 0.442 ± 0.031 | 0.619 ± 0.032 | 0.416 ± 0.0077 | 0.442 ± 0.03 | 0.6 ± 0.017
19 | HRDVISVVRNMS | 0.43 ± 0.027 | 0.625 ± 0.016 | 0.70886 ± 0.00045 | 0.659 ± 0.058 | 0.715 ± 0.019 | 0.246 ± 0.022 | 0.333 ± 0.022 | 0.576 ± 0.012
20 | GGSGGVSWRRVV | 0.395 ± 0.022 | 0.68 ± 0.034 | 0.735 ± 0.0088 | 0.654 ± 0.011 | 0.725 ± 0.01 | 0.223 ± 0.019 | 0.264 ± 0.018 | 0.546 ± 0.051

Row | Sequence | protein stability index [1] | protein stability index [2, 3] | protein stability index [2, 4] | protein stability index [2, 5] | protein stability index [2, 6] | protein stability index [2, 7] | protein stability index [2, 8] | protein stability index [2, 9]
21 | WLFASCVFFWSS | 0.426 ± 0.0054 | 0.447 ± 0.045 | 0.502 ± 0.0068 | 0.386 ± 0.026 | 0.525 ± 0.015 | 0.355 ± 0.0086 | 0.37 ± 0.0092 | 0.483 ± 0.011
22 | CFFLLLRVSLFP | 0.239 ± 0.028 | 0.08149 ± 0.00038 | 0.112 ± 0.024 | 0.143 ± 0.032 | 0.257 ± 0.0087 | 0.142 ± 0.0027 | 0.145 ± 0.025 | 0.218 ± 0.011
23 | VFAFVVFLHFEC | 0.31 ± 0.0057 | 0.188 ± 0.015 | 0.296 ± 0.048 | 0.237 ± 0.036 | 0.375 ± 0.013 | 0.184 ± 0.012 | 0.238 ± 0.029 | 0.375 ± 0.066
24 | FCTSSRLLYCSA | 0.302 ± 0.01 | 0.177 ± 0.0029 | 0.222 ± 0.0037 | 0.206 ± 0.026 | 0.3192 ± 0.00046 | 0.175 ± 0.0018 | 0.202 ± 0.026 | 0.278 ± 0.0096
25 | ALSRFFSVFLLV | 0.3814 ± 0.00064 | 0.592 ± 0.013 | 0.671 ± 0.009 | 0.55 ± 0.019 | 0.6766 ± 0.0044 | 0.26 ± 0.012 | 0.266 ± 0.03 | 0.454 ± 0.032
26 | VSRVHIRIEGNH | 0.528 ± 0.082 | 0.694 ± 0.027 | 0.755 ± 0.028 | 0.622 ± 0.017 | 0.7218 ± 0.0064 | 0.635 ± 0.026 | 0.634 ± 0.035 | 0.70121 ± 0.00047
27 | FVSVWVFLVSSF | 0.312 ± 0.024 | 0.258 ± 0.025 | 0.381 ± 0.019 | 0.248 ± 0.032 | 0.457 ± 0.014 | 0.194 ± 0.017 | 0.225 ± 0.035 | 0.401 ± 0.039
28 | AEVLCEIVIALR | 0.523 ± 0.043 | 0.582 ± 0.011 | 0.675 ± 0.063 | 0.485 ± 0.04 | 0.583 ± 0.0085 | 0.45 ± 0.019 | 0.48 ± 0.038 | 0.543 ± 0.018
29 | SIVDLFRLRSLS | 0.374 ± 0.12 | 0.643 ± 0.022 | 0.722 ± 0.016 | 0.684 ± 0.008 | 0.7295 ± 0.0054 | 0.264 ± 0.032 | 0.298 ± 0.012 | 0.519 ± 0.0074
30 | GLRFFVSSLLCR | 0.508 ± 0.058 | 0.502 ± 0.039 | 0.54807 ± 0.0003 | 0.389 ± 0.036 | 0.5651 ± 0.0036 | 0.377 ± 0.0095 | 0.388 ± 0.02 | 0.555 ± 0.021
31 | FLLCGVFFFFFV | 0.4286 ± 0.0014 | 0.323 ± 0.0043 | 0.405 ± 0.046 | 0.288 ± 0.025 | 0.3092 ± 0.00041 | 0.344 ± 0.012 | 0.245 ± 0.032 | 0.319 ± 0.013
32 | SLSSSFQFSSPS | 0.726 ± 0.094 | 0.701 ± 0.035 | 0.7506 ± 0.0045 | 0.69 ± 0.051 | 0.722 ± 0.026 | 0.6672 ± 0.00083 | 0.65 ± 0.032 | 0.7357 ± 0.0029
33 | GGWRVLHAWVAV | 0.463 ± 0.015 | 0.651 ± 0.045 | 0.682 ± 0.012 | 0.546 ± 0.019 | 0.6866 ± 0.00041 | 0.278 ± 0.0058 | 0.328 ± 0.023 | 0.553 ± 0.023
34 | FFCCRLPCLFVL | 0.252 ± 0.022 | 0.369 ± 0.016 | 0.407 ± 0.0051 | 0.363 ± 0.027 | 0.4824 ± 0.0016 | 0.174 ± 0.0061 | 0.174 ± 0.011 | 0.194 ± 0.0073
35 | SYMWLVEVLLFI | 0.264 ± 0.038 | 0.229 ± 0.0074 | 0.306 ± 0.0063 | 0.196 ± 0.028 | 0.386 ± 0.019 | 0.173 ± 0.012 | 0.189 ± 0.012 | 0.33 ± 0.0059
36 | FFSFLFLLLFGA |  | 0.566 ± 0.016 | 0.643 ± 0.0069 | 0.556 ± 0.018 | 0.619 ± 0.07 | 0.555 ± 0.016 | 0.5673 ± 0.0056 | 0.617 ± 0.046
37 | LDVGGRRGGEHC |  | 0.598 ± 0.071 | 0.646 ± 0.096 | 0.554 ± 0.024 | 0.6665 ± 0.0011 | 0.583 ± 0.092 | 0.594 ± 0.077 | 0.598 ± 0.011
38 | GVAVVWVGLGVT |  | 0.325 ± 0.011 | 0.445 ± 0.043 | 0.27 ± 0.018 | 0.474 ± 0.0068 | 0.227 ± 0.013 | 0.262 ± 0.017 | 0.4519 ± 0.0017
39 | LFVLVLLCWMLT |  | 0.347 ± 0.038 | 0.462 ± 0.014 | 0.373 ± 0.029 | 0.42739 ± 0.00025 | 0.357 ± 0.012 | 0.34 ± 0.013 | 0.434 ± 0.03
